Experimental data taken from paper PMC8800115, “The ASCC2 CUE domain in the ALKBH3–ASCC DNA repair complex recognizes adjacent ubiquitins in K63-linked polyubiquitin” (The Journal of Biological Chemistry, 2021).

Biological target: T1, K63-linked diubiquitin (UniProt P0CG48 1-76; P0CG48 1-76, K48R | K63R | D77 extension, distal ubiquitin: C-terminal G76 in an isopeptide bond with K63 of the proximal ubiquitin | proximal ubiquitin: K63 in an isopeptide bond with G76 of the distal ubiquitin)
T1 construct: ubiquitin, residues 1 to 76, K48R/K63R; distal position of K63Ub2; ubiquitin, residues 1 to 76, with a D77 extension; proximal position of K63Ub2; Two ubiquitins joined covalently; For NMR either the distal or the proximal ubiquitin was 15N-labelled; also called K63Ub2; WT K63Ub2
Assay: ITC; MicroCal iTC200; proteins dialysed in 20 mM Hepes pH 7.5, 150 mM NaCl, 200 μM TCEP; 2-μl injections; who was in the cell is not given; ranges of Kd are from fits with N fixed to 1 (first value: active concentration in the cell varied, second: in the syringe); Kd of S470R and E467R/S470R called apparent
Conditions: both partners purified

B1: full-length ASCC2 (natural protein, human, UniProt Q9H1I8 1-757, looked up)
chain: MPALPLDQLQITHKDPKTGKLRTSPALHPEQKADRYFVLYKPPPKDNIPALVEEYLERATFVANDLDWLLALPHDKFWCQVIFDETLQKCLDSYLRYVPRKFDEGVASAPEVVDMQKRLHRSVFLTFLRMSTHKESKDHFISPSAFGEILYNNFLFDIPKILDLCVLFGKGNSPLLQKMIGNIFTQQPSYYSDLDETLPTILQVFSNILQHCGLQGDGANTTPQKLEERGRLTPSDMPLLELKDIVLYLCDTCTTLWAFLDIFPLACQTFQKHDFCYRLASFYEAAIPEMESAIKKRRLEDSKLLGDLWQRLSHSRKKLMEIFHIILNQICLLPILESSCDNIQGFIEEFLQIFSSLLQEKRFLRDYDALFPVAEDISLLQQASSVLDETRTAYILQAVESAWEGVDRRKATDAKDPSVIEEPNGEPNGVTVTAEAVSQASSHPENSEEEECMGAAAAVGPAMCGVELDSLISQVKDLLPDLGEGFILACLEYYHYDPEQVINNILEERLAPTLSQLDRNLDREMKPDPTPLLTSRHNVFQNDEFDVFSRDSVDLSRVHKGKSTRKEENTRSLLNDKRAVAAQRQRYEQYSVVVEEVPLQPGESLPYHSVYYEDEYDDTYDGNQVGANDADSDDELISRRPFTIPQVLRTKVPREGQEEDDDDEEDDADEEAPKPDHFVQDPAVLREKAEARRMAFLAKKGYRHDSSTAVAGSPRGHGQSRETTQERRKKEANKATRANHNRRTMADRKRSKGMIPS
notes: source: E. coli Rosetta (DE3), purified (HisTrap, Superdex 200)
B1 was tested, and the “stoichiometry N” value was 1 ASCC2 per K63Ub2.
